Reference: US20170298146A1 (MODIQUEST B V, published 2017)
Non-standard residues stand in square brackets, D forms with d. No end group written: not given here. Cit = NC(=O)NCCC[C@H](N)C(=O)O

Experiments:
CFC-1 [1] = target: T1, CFC-1; assay: peptide ELISA, 0.0023 ug/well
T1 construct: Positive control for anti-citrulline reactivity; also called cfc1 XG
Method: (§1) Biotin and citrulline-containing peptides derived from histone 2A were immobilized on NEUTRAVIDIN®-coated 96-well ELISA plates (0.3 μg/well). CFC-1 and CFC-0 were coated at the same concentration and served as positive and negative controls respectively for specific anti-citrulline reactivity and as coating controls. Non-coated wells were used to test for aspecific binding of the antibodies. […] Detection of bound anti-citrulline antibodies was performed by incubating the wells with rabbit-anti-human-HRP (1:2000) for one hour at RT followed by incubation with TMB substrate. The resulting OD (y-axis) is a measure for antibody binding.
(§2) Ninety-six-well ELISA plates were coated with NEUTRAVIDIN® (0.1 μg/well) by overnight incubation at 4° C. Wells were washed five times with PBS-TWEEN®-20 (PBS-T) and blocked by a one-hour incubation with PBS-T+1% Bovine serum albumin (BSA) at room temperature (RT). After five more washes with PBS-T, wells were incubated for one hour at RT with histone-derived citrulline and biotin-containing peptides (0.3 μg/well). […] Wells were washed five times with PBS-T and incubated with rabbit-anti-human-HRP (1:2000) for one hour at RT followed by five washes with PBS-T and three wash steps with PBS. Wells were incubated for five minutes with TMB substrate before stopping the reaction with 2 M H₂SO₄. Optical density was measured by 450 nm and is a measure for the affinity of the antibodies used.

[2] = target: T2, Histone 2A citrulline-containing peptide 11 (human, also: biotin label); assay: peptide ELISA, 0.0023 ug/well
T2 peptide: LQLAI[Cit]NDEELN
Method: as §1, §2

[3] = target: T3, Histone 2A citrulline-containing peptide 4 (human, also: biotin label); assay: peptide ELISA, 0.0023 ug/well
T3 peptide: QFPVG[Cit]VHRLLR
Method: as §1, §2

[4] = target: T4, Histone 2A citrulline-containing peptide 10 (human, also: biotin label); assay: peptide ELISA, 0.0023 ug/well
T4 peptide: TRIIP[Cit]HLQLAI
Method: as §1, §2

[5] = target: T5, Histone 2A citrulline-containing peptide 7 (human, also: biotin label); assay: peptide ELISA, 0.0023 ug/well
T5 peptide: GNYSE[Cit]VGAGAP
Method: as §1, §2

[6] = target: T6, Histone 2A citrulline-containing peptide 1 (human, also: biotin label); assay: peptide ELISA, 0.0023 ug/well
T6 construct: also called AAASGXGKQGGK
T6 peptide: AAASG[Cit]GKQGGK
Method: as §1, §2

[7] = target: T7, Histone 2A citrulline-containing peptide 12 (human, also: biotin label); assay: peptide ELISA, 0.0023 ug/well
T7 peptide: NKLLG[Cit]VTIAQG
Method: as §1, §2

[8] = target: T8, Histone 2A citrulline-containing peptide 8 (human, also: biotin label); assay: peptide ELISA, 0.0023 ug/well
T8 peptide: AGNAA[Cit]DNKKTR
Method: as §1, §2

[9] = target: T9, Histone 2A citrulline-containing peptide 5 (human, also: biotin label); assay: peptide ELISA, 0.0023 ug/well
T9 peptide: VGRVH[Cit]LLRKGN
Method: as §1, §2

CFC-1 [10] = target: T1, CFC-1; assay: peptide ELISA, 0.4 ug/well
Method: as §1, with “fibrinogen and vimentin” for “histone 2A”
(§3) Biotin-labeled and citrulline-containing fibrinogen and vimentin peptides (Table 5) were also tested for reactivity with the therapeutic antibodies. Peptides were coated on 96-well NEUTRAVIDIN®-ELISA plates.

msFibα XH = target: T10, msFibα XH (mouse, X at position 15 is citrulline; biotin label); assay: peptide ELISA, 0.4 ug/well
T10 peptide: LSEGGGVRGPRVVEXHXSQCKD
Method: as §1, with “fibrinogen and vimentin” for “histone 2A”
as §3

msFibα XG = target: T11, msFibα XG (mouse, X at position 8 is citrulline; biotin label); assay: peptide ELISA, 0.4 ug/well
T11 peptide: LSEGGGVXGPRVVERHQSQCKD
Method: as §1, with “fibrinogen and vimentin” for “histone 2A”
as §3

huFibα XG = target: T12, huFibα XG (human, X at position 8 is citrulline; biotin label); assay: peptide ELISA, 0.4 ug/well
T12 peptide: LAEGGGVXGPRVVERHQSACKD
Method: as §1, with “fibrinogen and vimentin” for “histone 2A”
as §3

msVim XS/XL = target: T13, msVim XS/XL (mouse, also: biotin label); assay: peptide ELISA, 0.4 ug/well
T13 construct: also called mouse vimentin peptide
T13 peptide: YVT[Cit]SSAV[Cit]L[Cit]SSVP
Method: as §1, with “fibrinogen and vimentin” for “histone 2A”
as §3

CFC-1 [11] = target: T1, CFC-1; assay: peptide ELISA, 0.00064 ug/well
Method: as §1, §2

[12] = target: T14, Histone 2A citrulline-containing peptide 2 (human, also: biotin label); assay: peptide ELISA, 0.00064 ug/well
T14 peptide: AKAKS[Cit]SSRAGL
Method: as §1, §2

[13] = target: T2, Histone 2A citrulline-containing …; assay: peptide ELISA, 0.00064 ug/well
Method: as §1, §2

[14] = target: T3, Histone 2A citrulline-containing …; assay: peptide ELISA, 0.00064 ug/well
Method: as §1, §2

[15] = target: T5, Histone 2A citrulline-containing …; assay: peptide ELISA, 0.00064 ug/well
Method: as §1, §2

[16] = target: T6, Histone 2A citrulline-containing …; assay: peptide ELISA, 0.00064 ug/well
Method: as §1, §2

[17] = target: T8, Histone 2A citrulline-containing …; assay: peptide ELISA, 0.00064 ug/well
Method: as §1, §2

[18] = target: T15, Histone 2A citrulline-containing peptide 9 (human, also: biotin label); assay: peptide ELISA, 0.00064 ug/well
T15 peptide: DNKKT[Cit]IIPRHL
Method: as §1, §2

[19] = target: T9, Histone 2A citrulline-containing …; assay: peptide ELISA, 0.00064 ug/well
Method: as §1, §2

CFC-1 [20] = target: T1, CFC-1; assay: peptide ELISA, 0.000128 ug/well
Method: as §1, §2

[21] = target: T16, Histone 2A citrulline-containing peptide 3 (human, also: biotin label); assay: peptide ELISA, 0.000128 ug/well
T16 peptide: KSRSS[Cit]AGLQFP
Method: as §1, §2

[22] = target: T9, Histone 2A citrulline-containing …; assay: peptide ELISA, 0.000128 ug/well
Method: as §1, §2

B1: RhmAb2.102 (antibody, human IgG1, lambda)
heavy: not shown
light: QSVLTQPPSMSAAPGQKVTISCSGSSSNIGNNYVSWYQQVPGTAPKLLIYDDNKRPSGIPGRFSGSKSATSATLGITGLQAGDEADYYCGSWDDNLSVVLFGGGTKLTVLGQPKAAPSVTLFPPSSEELQANKATLVCLISDFYPGAVTVAWKADSSPVKAGVETTTPSKQSNNKYAASSYLSLTPEQWKSHRSYSCQVTHEGSTVEKTVAPTECS
notes: Human IgG1 lambda; also called Rhm2.102
- OD (CFC-1 [1]): 0.916 OD
- OD [2]: 0.057 OD
- OD [3]: 0.078 OD
- OD [4]: 0.068 OD
- OD [5]: 0.064 OD
- OD [6]: 0.3 OD
- OD [7]: 0.059 OD
- OD [8]: 0.06 OD
- OD [9]: 0.063 OD
- OD (CFC-1 [10]): 3.79 OD
- OD (msFibα XH): 0.076 OD
- OD (msFibα XG): 0.773 OD
- OD (huFibα XG): 0.521 OD
- OD (msVim XS/XL): 1.45 OD
- OD (CFC-1 [11]): 0.621 OD
- OD [12]: 0.055 OD
- OD [13]: 0.06 OD
- OD [14]: 0.063 OD
- OD [15]: 0.057 OD
- OD [16]: 0.16 OD
- OD [17]: 0.057 OD
- OD [18]: 0.059 OD
- OD [19]: 0.067 OD
- OD (CFC-1 [20]): 0.749 OD
- OD [21]: 0.063 OD
- OD [22]: 0.059 OD
